Consider 4 molecules from patent US20110165660A1, “ENGINEERED MICROORGANISMS WITH ENHANCED FERMENTATION ACTIVITY” (VERDEZYNE, INC., priority 2009, published 2011).

The test system of series [1] is xylose isomerase activity. The series is described as follows: Heterologous xylose isomerase expression in engineered yeast (active yes/no). Conditions: xylose isomerase of the donor organism expressed in engineered yeast (S. cerevisiae).
The test system of series [2] is xylose. Description: In vitro xylose isomerase activity assay on soluble whole cell extract (sorbitol dehydrogenase/NADH coupled, A340; Km, specific activity). In kind it is biochemical, Saccharomyces cerevisiae. As to the method:
[…] Louis, Mo.), and about 2 U sorbitol dehydrogenase (Roche) at about 30° C. […] A Beckman DU-800 was utilized with an Enzyme Mechanism software package (Beckman Coulter, Inc.), and the change in the A340 was monitored for 2-3 minutes.
Approximately 20 μg of soluble whole cell extract from each transformed cell line, prepared using Y-PER plus reagent as described above, was incubated in a solution containing about 100 mM Tris, pH 7.5, 10 mM MgCl ? 2, 0.15 mM NADH (Sigma, St. Louis, Mo.), and 2 U Sorbitol Dehydrogenase (SDH) (Roche, Indianapolis, Ind.) at about 30° C. […] A Beckman DU-800 spectrophotometer was utilized with an Enzyme Mechanism software package (Beckman Coulter, Inc, Brea, Calif.), and the change in the A340 was monitored for 2-3 minutes.
Approximately 20 μg of soluble whole cell extract from each transformed cell line was prepared using Y-PER plus reagent as described above was incubated in a solution containing about 100 mM Tris, pH 7.5, 10 mM MgCl2, 0.15 mM NADH (Sigma, St. Louis, Mo.), and 2 U sorbitol dehydrogenase (SDH) (Roche, Indianapolis, Ind.) at about 30° C. […] A Beckman DU-800 spectrophotometer was utilized with an Enzyme Mechanism software package (Beckman Coulter, Inc, Brea, Calif.), and the change in the A340 was monitored for 2-3 minutes.
Approximately 20 μg of soluble whole cell extract from each transformed cell line was prepared using Y-PER plus reagent as described above was incubated in a solution containing about 100 mM Tris, pH 7.5, 10 mM MgCl ? 2, 0.15 mM NADH (Sigma, St. Louis, Mo.), and 2 U Sorbitol Dehydrogenase (SDH) (Roche, Indianapolis, Ind.) at about 30° C. […] A Beckman DU-800 spectrophotometer was utilized with an Enzyme Mechanism software package (Beckman Coulter, Inc, Brea, Calif.), and the change in the A340 was monitored for 2-3 minutes.

The nature of series [3]: Western blot (anti-6xHis) of EDD and EDA expression in yeast, soluble/insoluble extract. Also noted: species or system Saccharomyces cerevisiae. As to conditions: C-terminal HIS tag, S. cerevisiae BY4742; total crude and solubilized extract; FIGS. 13A and 13B. The method, then: Transformation of the p426GPD plasmids containing an edd or an eda variant gene into yeast strain BY4742 was accomplished using the Zymo Research frozen-EZ yeast transformation II kit according to the manufacturer's protocol. The transformed BY4742 cells were selected by growth on a synthetic dextrose medium (SD) (0.67% yeast nitrogen base-2% dextrose) containing complete amino acids minus uracil (Krackeler Scientific Inc). Plates were incubated at about 30° C. for about 48 hours. Transformant colonies for each edd and eda variant were inoculated onto 5 ml of SD minus uracil medium and cells were grown at about 30° C. and shaken at about 250 rpm for about 24 hours. Cells were harvested by centrifugation at 1000×g for about 5 minutes, after which protein crude extract was prepared with Y-PER Plus (Thermo Scientific) according to the manufacturer's instructions. Whole cell extract protein concentrations were determined using the Coomassie Plus Protein Assay (Thermo Scientific) according to the manufacturer's directions. For each edd and eda variant His-tagged construct, about 10 μg of soluble and insoluble fractions were loaded on 4-12% NuPAGE Novex Bis-Tris protein gels (Invitrogen) and proteins were analyzed by western using anti-(H is)6 (SEQ ID NO: 138) mouse monoclonal antibody (Abcam) and HRP-conjugated secondary antibody (Abcam). […]
(In western blotting, separated proteins are transferred to a membrane and probed.)

Series [4] deals with 6-phosphogluconate. Description: EDA activity assay: S. cerevisiae EDA extracts with saturating E. coli EDD extract, LDH/NADH coupled. Type of series: biochemical, Saccharomyces cerevisiae.
Method: EDA extracts were prepared using the following protocol.
Grow 5 ml LB-Kan preps of BF1055 (BL21/DE3 with pET26b empty vector) and BF1706 (BL21DE3 with pET26b+E. coli EDD).
Grow 50 ml LB-Kan prep of BF1055, 2% (v/v) inoculate.
Grow 50 ml prep of BF1706 using Novagen's Overnight Express (46.45 ml LB-Kan, 1 ml solution 1, 2.5 ml solution 2, 50 μl solution 3, 5 μl of 1M MnCl2, 50 μl of 0.5 M FeCl2), 2% (v/v) inoculate.
Inoculate to OD600 of 0.2.
EDD extractions (adapted from Chemyan et al, Protein Science 16:2368-2377, 2007): • 1) Pellet cells in 50 ml conical tubes, 4° C., 3,000 rpm, 10 mins, discard supernatant. • 2) Resuspend in 2 ml degassed PDGH buffer (20 mM MES pH 6.5, 30 mM NaCl, 5 mM MnCl2, 0.5 mM FeCl2, 10 mM 2-mercaptoethanol, 10 mM cysteine, sparged with nitrogen gas). Move to hungate tube. • 3) Add 0.1% Triton X-100, 10 ng/ml DNase, 10 μg/ml PMSF, 10 μg/ml TAME (Nα-(p-toluene sulfonyl)-L-arginine methyl ester), 100 μg/ml lysozyme. • 4) Sparge hungate tube with nitrogen gas, cap and seal. […]
Each reaction contains 50 mM Tris-HCl, pH 7, 10 mM MgCl2, 0.15 mM NADH, 15 μg LDH, saturating amounts of EDD determined empirically (usually ˜100 μg), 1-50 μg EDA (depending on level of activity), and 1 mM 6-phosphogluconate. Reactions are started by the addition of 6-phosphogluconate and monitored for 5 mins at 30° C.

“Piromyces: xylose isomerase from Piromyces strain E2 (SEQ ID NO: 35)”: the “Active? (yes/no)” value in series [1] is on record as “Yes”. For the same molecule, the “Specific Activity” value in series [2] (soluble whole cell extract, pH 7.5, 30° C.) was found to be 2.02 µmol/min/mg.

B1: PAO1 EDD: phosphogluconate dehydratase (edd) from P. aeruginosa PAO1 (SEQ ID NO: 70) (protein, listed as Pseudomonas aeruginosa)
chain: MHPRVLEVTRRIQARSAATRQRYLEMVRAAASKGPHRGTLPCGNLAHGVAACGESDKQTLRLMNQANVAIVSAYNDMLSAHQPFERFPGLIKQALHEIGSVGQFAGGVPAMCDGVTQGEPGMELSLASRDVIAMSTAIALSHNMFDAALCLGVCDKIVPGLLIGSLRFGHLPTVFVPAGPMPTGISNKEKAAVRQLFAEGKATREELLASEMASYHAPGTCTFYGTANTNQLLVEVMGLHLPGASFVNPNTPLRDELTREAARQASRLTPENGNYVPMAEIVDEKAIVNSVVALLATGGSTNHTLHLLAIAQAAGIQLTWQDMSELSHVVPTLARIYPNGQADINHFQAAGGMSFLIRQLLDGGLLHEDVQTVAGPGLRRYTREPFLEDGRLVWREGPERSLDEAILRPLDKPFSAEGGLRLMEGNLGRGVMKVSAVAPEHQVVEAPVRIFHDQASLAAAFKAGELERDLVAVVRFQGPRANGMPELHKLTPFLGVLQDRGFKVALVTDGRMSGASGKVPAAIHVSPEAIAGGPLARLRDGDRVRVDGVNGELRVLVDDAEWQARSLEPAPQDGNLGCGRELFAFMRNAMSSAEEGACSFTESLNGWR
Turning to B1, the “expression and solubility (western)” value in series [3] is “expressed and soluble”.

B2: E. coli EDA: 2-keto-3-deoxygluconate-6-phosphate aldolase (eda) from E. coli expressed in yeast (protein, UniProt P0A955 1-213, looked up)
KHG/KDPG aldolase: MKNWKTSAESILTTGPVVPVIVVKKLEHAVPMAKALVAGGVRVLEVTLRTECAVDAIRAIAKEVPEAIVGAGTVLNPQQLAEVTEAGAQFAISPGLTEPLLKAATEGTIPLIPGISTVSELMLGMDYGLKEFKFFPAEANGGVKALQAIAGPFSQVRFCPTGGISPANYRDYLALKSVLCIGGSWLVPADALEAGDYDRITKLAREAVEGAKL
Take B2: in series [4] (EDA expressed in S. cerevisiae, saturating E. coli EDD), the “EDA activity relative to the EDA from P. aeruginosa” value is reported as “approximately 16 fold”. Moreover, in series [4] (repeat: 100 μg EDD and 25 μg EDA cell lysates (5 μg E. coli EDA), FIG. 24), the EDA activity ranking result was “most active”. Besides, the “expression and solubility (western)” value in series [3] was “expressed and soluble”.

B3: R. flavefaciens, FD-1 XI: xylose isomerase from R. flavefaciens FD-1 (SEQ ID NO: 110) expressed in S. cerevisiae (protein, listed as Ruminococcus flavefaciens)
chain: MEFFKNISKIPYEGKDSTNPLAFKYYNPDEVIDGKKMRDIMKFALSWWHTMGGDGTDMFGCGTADKTWGENDPAARAKAKVDAAFEIMQKLSIDYFCFHDRDLSPEYGSLKDTNAQLDIVTDYIKAKQAETGLKCLWGTAKCFDHPRFMHGAGTSPSADVFAFSAAQIKKALESTVKLGGTGYVFWGGREGYETLLNTNMGLELDNMARLMKMAVEYGRSIGFKGDFYIEPKPKEPTKHQYDFDTATVLGFLRKYGLDKDFKMNIEANHATLAQHTFQHELCVARTNGAFGSIDANQGDPLLGWDTDQFPTNIYDTTMCMYEVIKAGGFTNGGLNFDAKARRGSFTPEDIFYSYIAGMDAFALGYKAASKLIADGRIDSFISDRYASWSEGIGLDIISGKADMAALEKYALEKGEVTDSISSGRQELLESIVNNVIFNL
Take B3: in series [2] (100 μg total soluble crude extract, 500 mM xylose, FIG. 25), the “activity (slope) at saturating xylose” value was “highest activity of the candidates tested”. Besides, in series [2] (xylose concentrations between 40 and 500 nM), the “specific activity relative to native XI control” value is recorded as “greater than 2 fold”.
